Results published in patent US20200277401A1 (PANGEN BIOTECH, published 2020).

Molecular target: T1, recombinant coagulation factor VIII protein (Homo sapiens (Human), UniProt P00451 20-2351)
T1 construct: Recombinant protein isolated from a cell culture solution; also called recombinant coagulation factor FVIII; FVIII
T1 sequence: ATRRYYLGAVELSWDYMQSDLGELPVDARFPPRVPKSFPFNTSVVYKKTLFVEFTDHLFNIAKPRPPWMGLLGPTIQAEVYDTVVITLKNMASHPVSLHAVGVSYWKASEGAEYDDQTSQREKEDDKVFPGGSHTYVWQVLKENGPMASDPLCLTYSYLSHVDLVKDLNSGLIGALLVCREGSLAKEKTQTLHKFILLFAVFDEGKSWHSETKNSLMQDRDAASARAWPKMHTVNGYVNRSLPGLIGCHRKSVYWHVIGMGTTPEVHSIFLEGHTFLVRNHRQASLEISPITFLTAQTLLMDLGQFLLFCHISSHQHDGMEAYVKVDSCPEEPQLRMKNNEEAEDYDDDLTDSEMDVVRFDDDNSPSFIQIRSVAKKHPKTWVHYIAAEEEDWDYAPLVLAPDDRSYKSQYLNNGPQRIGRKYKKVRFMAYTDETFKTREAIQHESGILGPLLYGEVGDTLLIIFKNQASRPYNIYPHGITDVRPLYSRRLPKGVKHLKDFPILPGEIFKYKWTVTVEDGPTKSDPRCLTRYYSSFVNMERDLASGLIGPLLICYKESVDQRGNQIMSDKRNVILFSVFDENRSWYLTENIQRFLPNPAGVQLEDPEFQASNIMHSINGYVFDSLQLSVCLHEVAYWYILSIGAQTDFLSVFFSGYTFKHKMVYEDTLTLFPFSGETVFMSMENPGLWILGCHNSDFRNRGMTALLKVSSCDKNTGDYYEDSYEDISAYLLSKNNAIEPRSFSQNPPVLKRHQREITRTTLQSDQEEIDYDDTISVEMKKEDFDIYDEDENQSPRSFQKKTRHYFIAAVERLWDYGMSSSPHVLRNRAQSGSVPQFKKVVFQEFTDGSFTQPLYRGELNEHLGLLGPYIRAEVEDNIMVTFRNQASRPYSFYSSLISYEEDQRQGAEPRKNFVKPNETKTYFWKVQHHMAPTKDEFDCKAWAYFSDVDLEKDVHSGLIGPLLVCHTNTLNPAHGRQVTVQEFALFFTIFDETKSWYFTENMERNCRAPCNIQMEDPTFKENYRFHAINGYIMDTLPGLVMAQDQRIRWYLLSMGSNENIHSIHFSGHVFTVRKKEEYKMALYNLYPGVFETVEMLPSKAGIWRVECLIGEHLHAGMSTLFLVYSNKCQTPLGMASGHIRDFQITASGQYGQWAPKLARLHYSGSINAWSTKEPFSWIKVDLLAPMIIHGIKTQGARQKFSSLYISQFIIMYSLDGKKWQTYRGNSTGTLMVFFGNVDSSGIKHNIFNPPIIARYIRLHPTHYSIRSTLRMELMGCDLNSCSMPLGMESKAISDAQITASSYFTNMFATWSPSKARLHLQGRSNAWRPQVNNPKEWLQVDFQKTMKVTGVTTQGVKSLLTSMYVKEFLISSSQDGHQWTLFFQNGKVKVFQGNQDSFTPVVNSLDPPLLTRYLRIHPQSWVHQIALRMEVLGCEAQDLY
Assay: SPR, Biacore T200, FVIII immobilised on CM5 chip, antibody as analyte, 1:1 model
Procedure: The kinetic affinity (Ka, Kd, KD) between the purified antibody protein and the recombinant coagulation factor FVIII protein through antigen-antibody reaction was measured by a SPR (surface plasmon resonance) method.
The CM5 chip was mounted on a Biacore T200 instrument, and the recombinant coagulation factor FVIII protein as a ligand was diluted in a 10 mM sodium acetate buffer (pH 5.0) and injected into a sample channel for 10 minutes for immobilization. The purified antibody protein, as the analyte, was prepared at a concentration of 2 μM by diluting with a buffer and was then serially diluted to ten concentrations (0.0039, 0.0078, 0.015, 0.031, 0.062, 0.125, 0.25, 0.5, 1, 2 μM). Association and dissociation times were set to 3 minutes and 4 minutes, respectively, and association and dissociation were measured.
BIAevaluation analysis software was used to analyze the kinetic affinity of the purified antibody protein and the recombinant coagulation factor FVIII protein. The association force, dissociation force and dissociation constant were calculated as follows by applying ten concentrations of association/dissociation data to a 1:1 kinetic binding model (A+B↔AB).

Kd: 55.3 nM
koff: 0.00068 s⁻¹
kon: 12300 M⁻¹ s⁻¹
B1: anti-FVIII antibody (purified antibody protein produced by the ADBA1013-14 CHO cell line from the heavy and light chain genes of hybridoma clone 3F6-2-5) (antibody, mouse IgG1, V domains shown)
VH: EVKIEESGGGLVQPGGSMKLSCAASGFTFSDAWMDWVRQSPEKGLEWVAEIRSKAKNHATNYAESVKGRFTISRDDSKSRVYLQMNTLRAEDTGIYYCTNYHFWGPGTTLTVS
VL: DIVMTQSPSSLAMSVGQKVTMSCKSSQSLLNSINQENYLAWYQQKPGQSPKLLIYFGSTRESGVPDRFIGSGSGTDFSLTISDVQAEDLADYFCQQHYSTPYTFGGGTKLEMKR
modifications: N-glycan on Asparagine No. 288 of the heavy chain
notes: The full chains are in the listing under one of these numberings; The hybridoma antibody 3F6-2-5 and the recombinant CHO product are treated as one molecule (same genes); also called purified anti-FVIII antibody protein; anti-coagulation factor VIII antibody
